Where “and” joins values, the source holds several entries; their conditions need not be identical. Identical values can stand only once.
B1: Thermococcus kodakarensis PCNA1 (proliferating cell nuclear antigen 1, encoded by TK0535) (natural protein, UniProt Q5JF32 1-249, looked up)
chain: MPFEVVFDGAKEFADLIATASNLIDEAAFKFTEEGISMRAMDPSRVVLIDLNLPESIFSKYEVEEPETIGINMDQFKKILKRGKAKDTLILRKGDENFLEITFEGTAKRTFRLPLIDVEELELELPELPFTAKVVLLGEVLKEGIKDASLVSDAIKFIAKENEFTMKAEGETNEVEIRLTLEDEGLLDLEVEEETKSAYGIRYLSDMVKGIGKADEVILRFGNEMPLQMEYMIRDEGRLTFLLAPRVEE
B2: Thermococcus kodakarensis PCNA2 (proliferating cell nuclear antigen 2, encoded by TK0582) (natural protein, UniProt Q5JFD3 1-253, looked up)
chain: MTFEIVFDSAREFESLIATLEKFFDEAVFQVNMEGIQMRAIDPSRVVLVDLNLPEMLFSKYSVESEEAIAFDLKRFLKVLKLARSRDTLVLRKGGENFLEVGLLGDENTWFKLPLIDANTPEIEIPSLPWTVKAVVLAGALKRAVKAAKLVSDSIYFMATPEKLTFKAEGNDSEVRTVLTMEDPGLLDLEHKMTKAKSAYGVAYLEDILRSLADADEVIIRFGFDIPLLLKYMVRDAGEVSFLIAPRVEEGRS

What was measured:
[1] = molecular target: Thermococcus kodakarensis replication factor C large subunit (Thermococcus kodakarensis) (UniProt Q5JHP1); test: SEC
Thermococcus kodakarensis replication factor C large subunit (Thermococcus kodakarensis), sequence (Q5JHP1 whole entry): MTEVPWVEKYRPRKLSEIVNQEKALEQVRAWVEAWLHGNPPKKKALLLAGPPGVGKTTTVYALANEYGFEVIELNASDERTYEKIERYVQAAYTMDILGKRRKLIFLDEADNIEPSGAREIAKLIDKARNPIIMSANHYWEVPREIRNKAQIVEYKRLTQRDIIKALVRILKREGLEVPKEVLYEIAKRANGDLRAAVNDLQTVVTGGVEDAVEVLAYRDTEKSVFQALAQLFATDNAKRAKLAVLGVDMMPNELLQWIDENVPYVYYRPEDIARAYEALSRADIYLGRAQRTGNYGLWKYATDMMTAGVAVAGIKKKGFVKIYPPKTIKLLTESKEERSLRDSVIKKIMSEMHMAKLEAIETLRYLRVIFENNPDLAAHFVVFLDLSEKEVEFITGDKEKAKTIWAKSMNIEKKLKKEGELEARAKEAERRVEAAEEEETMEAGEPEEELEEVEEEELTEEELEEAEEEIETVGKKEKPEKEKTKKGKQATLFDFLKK

SEC = molecular target: the molecule itself; test: SEC

Molecule | stoichiometry N [1] | stoichiometry N (SEC)
Thermococcus kodakarensis replication factor C small subunit (natural protein) | 4 | 
B1 |  | 2 and 3
B2 |  | 3 and 6
